The values that follow are results of earlier work, collected in patent US20250241861A1, “Mechano-Sensitive Microcapsules For Drug Delivery” (The Trustees of the University of Pennsylvania, priority 2015, published 2025).

Data set [1] deals with engineered cartilage. As to conditions: 10 ng/ml, 5 days post-injury.
Data set [2] has as its system MMP activity in chondrocytes. As to conditions: 10 ng/ml, after inflammatory stimulation of chondrocytes.

B1: TGF-β3: transforming growth factor beta, anabolic compound / chondrogenic factor (protein, UniProt P10600 301-412, looked up)
Transforming growth factor …: ALDTNYCFRNLEENCCVRPLYIDFRQDLGWKWVHEPKGYYANFCSGPCPYLRSADTTHSTVLGLYNTLNPEASASPCCVPQDLEPLTILYYVGRTPKVEQLSNMVVKSCKCS
On to B1, for which, in data set [1], the “reduction of GAG loss compared to injured controls” value is given as “about 30%”. The MMP activity entry in data set [2] is reported as “reduce MMP activity”.
